Data on one substance can be found in PMC4406087, “Remaining challenges in cellular flavin cofactor homeostasis and flavoprotein biogenesis” (Frontiers in Chemistry, 2015).

Data set [1] has as its system T1, Cc1cc2nc3c(=O)[nH]c(=O)nc-3n(C[C@H](O)[C@H](O)[C@H](O)COP(=O)(O)O)c2cc1C.
T1 construct: recombinant 6His-tagged cytosolic isoform 2, purified
The experiment in a line: spectrofluorimetric FAD synthesis assay. It is filed as biochemical, Homo sapiens. The settings on record: 50 mM Tris-HCl pH 7.5, 5 mM MgCl2, 37°C, Km app at the highest ATP (ATP 1 to 100 μM; 8 μM at lowest ATP).

Data set [2] relates to T2, Nc1ncnc2c1ncn2[C@@H]1O[C@H](COP(=O)(O)OP(=O)(O)OP(=O)(O)O)[C@@H](O)[C@H]1O.
T2 construct: recombinant 6His-tagged cytosolic isoform 2, purified
The data set can be described thus: spectrofluorimetric FAD synthesis assay. It is filed as biochemical, Homo sapiens. The conditions noted are these: 50 mM Tris-HCl pH 7.5, 5 mM MgCl2, 37°C, FMN 0.1-2 μM, ordered bi-bi, ATP binds first.

6His-hFADS2 (Homo sapiens), sequence (chain, as listed by the source): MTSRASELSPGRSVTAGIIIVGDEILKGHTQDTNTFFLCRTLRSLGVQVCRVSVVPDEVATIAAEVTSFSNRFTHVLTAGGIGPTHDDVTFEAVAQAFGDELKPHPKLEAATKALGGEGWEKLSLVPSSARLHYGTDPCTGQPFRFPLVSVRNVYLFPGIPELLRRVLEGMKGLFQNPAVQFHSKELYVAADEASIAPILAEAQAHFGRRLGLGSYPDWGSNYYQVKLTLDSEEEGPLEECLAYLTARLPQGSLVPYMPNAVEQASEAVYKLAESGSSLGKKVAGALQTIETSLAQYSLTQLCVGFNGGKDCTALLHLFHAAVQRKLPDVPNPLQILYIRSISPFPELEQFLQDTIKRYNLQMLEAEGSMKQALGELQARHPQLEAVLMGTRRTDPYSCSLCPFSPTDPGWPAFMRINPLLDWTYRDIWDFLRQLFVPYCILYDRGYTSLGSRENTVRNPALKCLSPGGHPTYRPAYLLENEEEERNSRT

With 6His-hFADS2 (Homo sapiens), the Michaelis-Menten constant (Km) in data set [1] came to 0.4 µM; in data set [2] it was 15 µM.
